# T1: 6xHis-tagged FAT1 cadherin #28-33 (3024-3789 aa) (UniProt Q14517 3024-3789)
# T1 sequence: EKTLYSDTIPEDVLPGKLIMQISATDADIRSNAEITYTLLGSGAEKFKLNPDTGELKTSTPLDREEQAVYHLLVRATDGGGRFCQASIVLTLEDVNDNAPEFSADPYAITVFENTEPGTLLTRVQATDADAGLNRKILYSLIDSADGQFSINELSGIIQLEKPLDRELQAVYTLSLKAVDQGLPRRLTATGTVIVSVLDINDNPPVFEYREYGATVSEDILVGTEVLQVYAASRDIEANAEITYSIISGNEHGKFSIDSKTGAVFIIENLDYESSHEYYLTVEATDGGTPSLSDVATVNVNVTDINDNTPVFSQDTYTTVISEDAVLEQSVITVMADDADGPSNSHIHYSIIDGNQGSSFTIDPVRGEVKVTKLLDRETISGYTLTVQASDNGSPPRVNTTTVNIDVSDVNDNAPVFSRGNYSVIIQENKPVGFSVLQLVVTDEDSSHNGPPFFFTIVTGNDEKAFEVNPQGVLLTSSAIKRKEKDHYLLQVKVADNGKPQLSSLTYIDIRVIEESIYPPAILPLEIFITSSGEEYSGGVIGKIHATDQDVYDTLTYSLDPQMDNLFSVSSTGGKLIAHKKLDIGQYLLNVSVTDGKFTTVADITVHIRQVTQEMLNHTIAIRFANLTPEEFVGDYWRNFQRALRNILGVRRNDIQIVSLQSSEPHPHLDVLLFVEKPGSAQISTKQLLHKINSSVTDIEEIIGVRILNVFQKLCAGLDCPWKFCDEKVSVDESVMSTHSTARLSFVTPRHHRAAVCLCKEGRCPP
# B1: GST-OLFM4 (OLFM4 without signal peptide) (domain or fragment)
# chain: not shown
# Target: T1, 6xHis-tagged FAT1 cadherin #28-33 …
# Assay: pull-down
binder,measurement,value
B1,binding result,binds

# From article PMC11615309 (Nature Communications, 2024)
